Experimental data reported in the nanobody polyreactivity screen of Harvey et al. (2022).

Experiment: yeast display, Sf9 membrane polyspecificity reagent, FACS + sequencing; frameworks hold sequencing errors
In short: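 Galactose-induced (36–48 hours) yeast carrying a synthetic nanobody display library were exposed to 10% biotinylated, detergent-solubilized Sf9 membrane reagent at 4 °C for 1 hour. FACS followed streptavidin microbead enrichment, using low and high (top ~1%) gates for expression (anti-HA) and reagent binding (streptavidin). Colony PCR, MiSeq 2 × 250 sequencing and CDR-length filtering followed. Labels for polyreactivity reflect the gate of origin.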
For “QVQLVESGGGLVQAGGSLRLSCAASGRIFDYYAMGWYRQAPGKERELVARISIGGSTYADSVKGRFTISRDNAKNTVYLQMNSLKPEDSAVDYCADSTIRLVGYRTYWGPRYDYWGQGTQVTVSS”, the “polyreactivity (PSR sort gate)” value was “low polyreactivity”.
In the case of “QVQLVESGGGLVQAGGSLRLSCAASGFIIARNTMGWYRQAPAKERELVAAISSSGGSTYYADSVKGRFTISRDNAKNTFYLQMNCLKPEDTAVYYCNKGYTGLYGYDYWGQGTHVTVSS”, the “polyreactivity (PSR sort gate)” value is reported as “high polyreactivity”.
In the case of “QVQLVESGGGLVQAGGSLRLSCAASGSIFRLYVMGWYRQAPGKERELVATITRSGGNTYYADSVKGRFTISRDNAKNTVYLQMNSLKPEDTAVYYCAAQSAKSGFYPYNRYDYWGQGTQVTVSS”, the “polyreactivity (PSR sort gate)” value is reported as “low polyreactivity”.
For “QVQLVESGGGLGQAGGSLRLSCAASGSIFPDYVMGWYRQAPGKARELVAAISRGGSTYYADSVKGRFTISRDNAKNTVYLQMNSLKPEDTAVYYCAADNPHWRYEYWGPGTQVTVSS”, the “polyreactivity (PSR sort gate)” value was “high polyreactivity”.
With “QVQLVESGGGLVQAGGSLRLSCAASGSIFRSYAMGWYRQAPGKERELVAAISRGGSTTYADSVKGRFTISRDNAKNTVYLQMNSLKPEDTAVYYCAVANVYYEGYDYWGQGTQVTVSS” the “polyreactivity (PSR sort gate)” value was “low polyreactivity”.
In the case of “QVQLVESGGGLVQAGGSLRLTCAASGRTFNIYAMGWYRQAPGKERELVAAITSGGSTNYADSVKGRFTISRDNAKNTVYLQMNSLKPEDTAVYYCNARYFRGYDYWGQGTQVTVSS”, the “polyreactivity (PSR sort gate)” value is reported as “high polyreactivity”.
For “QVQLVESGGGLVQAGGRLRLSCAASGRIFVAYVMGWYRQAPGKERELVAAITRGVRTYYADSVKGRFTISRDNAKNTVYLQMNSLKPEDTAVYYCAARGISAFSQDYEYYYWGQGTQVTVSS”, the “polyreactivity (PSR sort gate)” value was “high polyreactivity”.
For “QFQIVESGGGLVQAGGSLRLSCAASGSTFRTNAMGWYRQAPGKERELVARIRYSVGSTYYADSVKGRFTISRDNAKNTVYLQMNSLKPEDTAVYYCAAENQRVGTFREHDSWGQGTQVTVSS”, the “polyreactivity (PSR sort gate)” value was “low polyreactivity”.
In the case of “QVQLVESGGGLVQAGGSLRLSCAASGIIIYDYAMGWYRHAPGKERELVAAISRSGGSTYYADSVKGRFTISRDNAKYTVYLQMNSLKPDDTAVYYCNADEVVWGYNYWGQGTQVTVSS”, the “polyreactivity (PSR sort gate)” value is reported as “low polyreactivity”.
For “QVQLVESGGGLVQAGGSLRLSCAASGYIFVPYAMGWSRQAPGKERELVAAISRGGNTNYADSVKGRFTISRDNAKNTVYLQMNSLKPEDTAVYYCNADLVQYWGRRRWYDYWGQGTQVTVSS”, the “polyreactivity (PSR sort gate)” value was “low polyreactivity”.
In the case of “QVQLVESGGGLVQAGGSLRLSCAASGSTFVPYAMGWYRQAPGKERELVAAITDSGGSTSYADSVKGRFTISRDKAKNSVYLQMNSLKPEDTAVYYCAAQTRAIVQKYPGDDYWGQGTQVTVSS”, the “polyreactivity (PSR sort gate)” value is reported as “low polyreactivity”.
With “QVQLVESGGGLVQAGRSLRLSCAASGTIFAFYAMGWYRQAPGIVRELVAAITWRGGRTTYADSVKGRFTISRDNAKNTVYLQMNSLKPEDTAVYYCAAVIHWWYATYDYWGQGTQVTVSS” the “polyreactivity (PSR sort gate)” value was “high polyreactivity”.
With “QVQLVESGGGLVQAGGSLRLSCAASGSTFGFYAMGWYRQAPGKERELVAAISGRGGSTYYADSVKGRFTISRDNAKNTVYLQMNSLKPEDTAVYYCNADWQDDLAGYVVDYWGLGTQVTVSS” the “polyreactivity (PSR sort gate)” value was “low polyreactivity”.
With “QVQLVESGGGLVQAGGSLRLSCAASGRFFSWNAMGWYRPAPGTERELVAAISSSVGSTYYADSVKGRFTISRDNAQNTVYFQMNSRKPEDTAVYYCNAVPIGQWAYDYWGQGTQVTVSS” the “polyreactivity (PSR sort gate)” value was “high polyreactivity”.
For “QVQLVESGGGLVQAGGSLRLSCASSGSTFFTNAMVWYRQAPGKERELVATITWSGGTTYADSVKGRFTISRDNAKNTVYLQMNSLKPEDTAVYYCADESSSYWGDQGGALWLYDYWGQGTQVTVSS”, the “polyreactivity (PSR sort gate)” value was “low polyreactivity”.
For “QVQLVESGGGLVQAGVSLRISCAAAGFTFERYAMGWYRQAPGKERELVATISRRGGSTNYADSVKGRFTISRDNAKNTVYLQMNSLKPEDTAVYYCARTLYRGKSYHVHSKYDYWGQGTQVTVSS”, the “polyreactivity (PSR sort gate)” value was “high polyreactivity”.
In the case of “QVQLVESGGGLVQAGGSLRLSCAAYGLTFYGYGMGWYRQAPGKERELVASITSGGNTYYADSVKGRFTISRDNAKNTVYLQMNSLKPEDTAVYYCAVTAIALYYSSGYYWGQGTQVTVSS”, the “polyreactivity (PSR sort gate)” value is reported as “low polyreactivity”.
With “QVQLVESGGGLVQAGGSLRLSCAASGFIFYVYAMGWYRQARGKERELVAAISGGGDSTYYADSVKGRFTISRDNAKNTVYLQMNSLKPEHTAVYYCAAEPWANTPGEAGSPFDYWGQGTQVTVSS” the “polyreactivity (PSR sort gate)” value was “low polyreactivity”.
In the case of “QVQLVESGGGLVQAGGSLRLSCAASGSTFRSYAMGWYRQAPGKERELVAAISVSGGSTYYADSVKGRFTISRDNAKNTVYLQMNSLKPEDTAVYYCAASYVPSYAPGRYYYWGQGTQVTVSS”, the “polyreactivity (PSR sort gate)” value is reported as “high polyreactivity”.
With “QVQLVESGGGLVQAGGSLRLICAASGLIFDYYAMGWYRQSPGKDRELVAAITSSSGITYYADSVKGRFTISRDNAKNTVSLQMNSLKPEDTAVYYCNADTRTTTRRFNPYDYWGQGTQVTVSS” the “polyreactivity (PSR sort gate)” value was “low polyreactivity”.
For “QVQLVESGGGLVQAGGSLRLSCAASGYTFKTYAMGWYRQAPGKERELVAAIRTSGGSTYYADSVKGRFTISRDNAKNTVYLQMNSLKPEDTAVYYCAAAFNYYGSLYDYWGQGTQVTVSS”, the “polyreactivity (PSR sort gate)” value was “high polyreactivity”.
With “QVQLVESGGGLVQAGGSLRLSCAASGRIFYNNAMGWYRQAPGKERELVASITRNGGRTYYADSVKGRFTISRDNAKNTVYLKMNSLKREDTAVYYCAIDYSRGQIRAGAYEYWGQGTQVTVSS” the “polyreactivity (PSR sort gate)” value was “high polyreactivity”.
With “QVQLVESGGGLVQAGGSLRLSCAASGSTFSVNPMGWYRQARVKERELVAAIDSGDSTYYADSVKGRFTISRDNAKNTVYLQMNSLKPEDTAVYYCATDVTFVYDLGYFQYDYWGQGTQVTVSS” the “polyreactivity (PSR sort gate)” value was “low polyreactivity”.
With “QVQLVESGAGLVQAGGSLRLSCAASGSTFKPNVMGWYRQAPGKERELVAAITSTDDRTYYADSVKGRFTISRDNAKNTVYLQMNSLKPEDTAVYYCAVESLRDDFEYDYWGQGTQVTVSS” the “polyreactivity (PSR sort gate)” value was “low polyreactivity”.
In the case of “QVQLVDSGGGLVQAGGSLRLSCAASGFTFNGYAMGWSRPAPGKEREFVAAISSSGGSTYYADSVKGRFTISRDNAKNTVYLQMNSLKPDDTAVYYCNAVGWRKKYDYWGQGTQVTVSS”, the “polyreactivity (PSR sort gate)” value is reported as “high polyreactivity”.
With “QVQLVESGGGLVQAGGSLRLSCAASGRIFGDNAMGWYRQAPGKEREFVATINGSGGSTYYADSVKGRFTISRDNAKNTVYLQMNSLKPEDTAVYYCFVQQNYGYDYWGQGTQVTVSS” the “polyreactivity (PSR sort gate)” value was “low polyreactivity”.
In the case of “QVQIVESGGGLVQAGGSLRLSCAASGRIIKGYAMGWYRQAPGKDMELVADISEDGGSTYYADSVKGRFTISRDNAKNTVYLQMNSLKTEDTAVYFCAAEYYVVNYAIGYDYWGQGTQVTVSS”, the “polyreactivity (PSR sort gate)” value is reported as “low polyreactivity”.
With “QVQLVESGGGLVQAGGSLRLSCAASGSIFRSDPMGWYRQAPGKEREFVASITYRGGRTYYADSVKGRFTISRDNAKNTVSLQLNSLKPEDSAVYYCAARTRAGAWTSKYHDYWGQGTQVTVSS” the “polyreactivity (PSR sort gate)” value was “high polyreactivity”.
For “QVQLVHSGGGLVQEGGSLRLSCAASGSIFYSYGMGWYRQAPGKERELVAAITSSGGGTYYADSVKGRFTISRDNAKNNVYLQMNSVKAEDTAVYYCAADDRNYNYYPTFYYWGQGTQVTVSS”, the “polyreactivity (PSR sort gate)” value was “low polyreactivity”.
For “QVQLVESGGGLVQAGGSLRLSCAASGFTFWQYAMGWYRQAPGKERELVAAITRDVGSTYYADSVKGRFTISRDNAKNTVYLQMNSLKPEDTAVYYCAKLFGGTYYEYDYWGQGTHVTVSS”, the “polyreactivity (PSR sort gate)” value was “low polyreactivity”.
With “QVQLVESGGGLVQAGGSLRLSCAASAFIIHRYAMGWYRQAPGKERELVAVITSGGGSTYYADSVKGRFTISRDNAKNTVYLQMNCLKAEDTAVYYCAAFQPDNSRYRYDYWGQGTQVTVSS” the “polyreactivity (PSR sort gate)” value was “high polyreactivity”.
With “QVQLVESGGGLVQAGGSLRLSCAASGFTFTYNAMGWDRQAPGKERELVAAISWSGGSTRYADSVKGRFTISRDNAKKTVYFQMNSLKPEDTGVYYFNKYTYRGRTGEINYWGQGTQVTVSS” the “polyreactivity (PSR sort gate)” value was “high polyreactivity”.
With “QVQLEESGGRLVQAGGSLRLSCAASGSTFITNAMGWYRQAPGKERELVAAITYSTGGTYYADSVKGRFTISRDNAKNTVYLQMNSLKPEDTAVYYCAALLYFFLYDYWGHGTQVTVSS” the “polyreactivity (PSR sort gate)” value was “low polyreactivity”.
In the case of “QVQLVESGGGLVQAGGSLRLSCAASGFTFWSYAMGWYRQAPGKERELVAAISSSGDSTYYADSVKGRFTISRDNAKNTVYLQMNSLKPEDTAVYYCAAGTHTDYGRYYYWGQGTQVTVSS”, the “polyreactivity (PSR sort gate)” value is reported as “low polyreactivity”.
With “QVQLVESGGGLVQAGGSLRLSCAASGRNFRYNAMGWYRQAPGKERELVAAISSGDRTNYADSVKGRFTISRDNAKNTVYLQKKSLKPVDTAVYYCAAPTDSYYEFDYWGQGTQGTVSS” the “polyreactivity (PSR sort gate)” value was “low polyreactivity”.
In the case of “QVQLVESGGGLVQAGGSLRLSCAASGSIFDPNAMGWYRQAPGKERELVAAINSGGSTDYADSVKGRFTISRDNAKNTVYLQMNSLKPEDTAVYYCNAEYGYSGVGDDYWGQGTQVTVSS”, the “polyreactivity (PSR sort gate)” value is reported as “low polyreactivity”.
In the case of “QFQLVESGGGLVQAGGSLRLSCAASGFTFAYYAMGWYRQAPGKERELVAAITYSGGSTYYADSVKGRFTISRDNAKNTVYLQMNSLKPEDTAVYDCAAYPSRRRRGDEDDYWGQGTQVTVSS”, the “polyreactivity (PSR sort gate)” value is reported as “high polyreactivity”.
In the case of “QVQLVESGGGLDQAGGSLRLSCAASGITFGFYTMGWYRQAPGKERELVAAITSGGSTSYADSVKGRFTISRDNAKNTVYLQMNSLKPEDTAVYYCAADYLYPFPPYQYWKQSYDYWGQGTQVTVSS”, the “polyreactivity (PSR sort gate)” value is reported as “low polyreactivity”.
With “QVQLVESGGGLVQAGGSLRLSCAASGITFGRNAMGWYRQAPGKERELVAAISRGGSTNYADSVKGRFTISRDNAKNTVYLQMNSLKPEDTAVYYGNARSWPHGSWIPIHRRSGYWGQGTQVTVSS” the “polyreactivity (PSR sort gate)” value was “high polyreactivity”.
With “QLQLLESGGGIVQAGGILRLSCAASGFTFAHYAMGWYRQAPGIERELVAAITSRGGSTYYADSVKGRFTISRDNAKNPVYLQMNSLKPEDTAVYYCAAKTLLFIFGYWGQGTHVTVSS” the “polyreactivity (PSR sort gate)” value was “high polyreactivity”.
With “QVQLVESGGGLVQAGGSLRLSCAASGNTIIDYAMGWYRQPPGKERELVASITSGGGSTYYADSVKGRFTISRDNAKNTVYLQMNSLKPVDTAVYYCAAERYYSEAIFRSYDYWGQGTQVTVSS” the “polyreactivity (PSR sort gate)” value was “low polyreactivity”.
In the case of “QVPLVESGGGLVQAGGSLRLSCAASGSTFSGYAMGWYRQAPGKERELVATITSTGSTNYADSVKGRFTISRDNAKNTVYLQMNSLKPEDTAVYYCNARYLFVERYFLHYASVRYDYWGQGTQVTVST”, the “polyreactivity (PSR sort gate)” value is reported as “low polyreactivity”.
In the case of “QVQLVESGGGLVQAGGSLRLSCAASGSIFYRNAMGWYRQAPGKERELVAAISRGGSTNYADSVKGRFTIERDNAKNTVYLQMNSLKPEDTAVYYCNALYHGDYDYWGQGTQVTVSS”, the “polyreactivity (PSR sort gate)” value is reported as “high polyreactivity”.
